T1: Recombinant human CCK4/PTK7 Protein (His Tag), Sino Biological 19399-H08H (human, UniProt Q13308 31-704)
T1 construct: bought protein; not shown: His tag
T1 sequence: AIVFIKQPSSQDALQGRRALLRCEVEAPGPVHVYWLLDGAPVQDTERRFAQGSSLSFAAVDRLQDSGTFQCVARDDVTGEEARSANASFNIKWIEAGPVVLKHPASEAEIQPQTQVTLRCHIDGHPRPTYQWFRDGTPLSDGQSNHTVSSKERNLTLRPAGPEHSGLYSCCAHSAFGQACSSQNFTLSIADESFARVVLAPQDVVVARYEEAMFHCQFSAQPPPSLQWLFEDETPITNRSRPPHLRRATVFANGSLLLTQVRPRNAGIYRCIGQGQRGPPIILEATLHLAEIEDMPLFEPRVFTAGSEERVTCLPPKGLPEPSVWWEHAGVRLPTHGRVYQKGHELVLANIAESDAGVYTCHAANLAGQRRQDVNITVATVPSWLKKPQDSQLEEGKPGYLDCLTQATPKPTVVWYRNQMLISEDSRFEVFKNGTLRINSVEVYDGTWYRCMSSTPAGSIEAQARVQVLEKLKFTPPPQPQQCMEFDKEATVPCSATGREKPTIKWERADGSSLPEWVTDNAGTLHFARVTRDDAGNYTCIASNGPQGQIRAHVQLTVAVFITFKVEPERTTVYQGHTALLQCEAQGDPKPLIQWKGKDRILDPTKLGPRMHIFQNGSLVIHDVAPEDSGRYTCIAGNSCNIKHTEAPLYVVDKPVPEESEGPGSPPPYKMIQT

T2: Human PTK7 Protein, His Tag (Acro Biosystems) (human, UniProt Q13308 31-704)
T2 construct: Bought recombinant protein; also called CCK4; tyrosine-protein kinase-like 7; not shown: His tag
T2 sequence: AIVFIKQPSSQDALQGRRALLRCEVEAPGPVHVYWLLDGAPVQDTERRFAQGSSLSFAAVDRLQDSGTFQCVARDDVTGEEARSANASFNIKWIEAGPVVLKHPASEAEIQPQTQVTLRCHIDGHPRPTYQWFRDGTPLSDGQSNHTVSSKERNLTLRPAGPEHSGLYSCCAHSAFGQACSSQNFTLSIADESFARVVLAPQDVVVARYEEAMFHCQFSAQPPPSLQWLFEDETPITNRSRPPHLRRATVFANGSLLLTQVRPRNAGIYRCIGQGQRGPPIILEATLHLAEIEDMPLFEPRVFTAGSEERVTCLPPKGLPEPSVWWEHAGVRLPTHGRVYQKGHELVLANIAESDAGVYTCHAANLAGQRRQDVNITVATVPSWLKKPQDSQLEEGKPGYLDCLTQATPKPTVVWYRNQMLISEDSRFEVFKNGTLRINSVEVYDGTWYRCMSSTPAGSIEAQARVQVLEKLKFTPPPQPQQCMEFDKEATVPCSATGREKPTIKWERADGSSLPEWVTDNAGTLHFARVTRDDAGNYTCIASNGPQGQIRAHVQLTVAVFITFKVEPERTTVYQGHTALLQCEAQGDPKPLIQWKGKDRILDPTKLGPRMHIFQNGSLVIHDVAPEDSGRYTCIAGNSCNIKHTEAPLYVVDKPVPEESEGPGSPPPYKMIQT

T3: Human PTK7 Protein, His Tag, Acro Biosystems (human, UniProt Q13308 31-704)
T3 construct: Bought recombinant protein; also called CCK4; not shown: His tag
T3 sequence: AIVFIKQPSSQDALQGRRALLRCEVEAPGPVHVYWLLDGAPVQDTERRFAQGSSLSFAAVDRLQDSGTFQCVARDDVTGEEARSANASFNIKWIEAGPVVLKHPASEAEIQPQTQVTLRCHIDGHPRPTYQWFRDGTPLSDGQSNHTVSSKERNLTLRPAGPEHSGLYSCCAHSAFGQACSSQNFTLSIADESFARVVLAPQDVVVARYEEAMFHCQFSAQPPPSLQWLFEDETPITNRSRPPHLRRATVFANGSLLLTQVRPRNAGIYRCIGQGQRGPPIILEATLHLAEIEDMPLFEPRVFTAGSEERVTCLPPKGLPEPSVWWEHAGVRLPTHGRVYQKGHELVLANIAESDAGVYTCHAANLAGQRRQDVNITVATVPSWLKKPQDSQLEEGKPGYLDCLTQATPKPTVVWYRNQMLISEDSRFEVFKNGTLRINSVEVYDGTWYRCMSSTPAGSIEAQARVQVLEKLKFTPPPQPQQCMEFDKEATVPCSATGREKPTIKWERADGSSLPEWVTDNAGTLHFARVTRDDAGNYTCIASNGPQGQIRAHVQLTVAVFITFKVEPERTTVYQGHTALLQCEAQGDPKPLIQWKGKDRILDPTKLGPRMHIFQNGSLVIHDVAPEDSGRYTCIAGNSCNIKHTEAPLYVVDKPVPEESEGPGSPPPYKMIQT

B1: MYT7972 (antibody, V domains shown)
VH: EVQLVQSGGGLVHPGGSLRLSCAGSGFTFSTYLMYWVRQAPGKTLEWVSAIHSGGDTYYADSVKGRFTISRDNAKNSLYLQMNSLRAEDMAVYYCARGLGYWGQGTLVTVSS
VL: not shown
notes: IgG
B2: MYT8016 (antibody, V domains shown)
VH: EVQLVQSGGGLVHPGGSLRLSCAGSGFTFSTYLMYWVRQAPGKTLEWVSAIGSGGDTYYADSVKGRFTISRDNAKNSLYLQMNSLRAEDMAVYYCARGLGYWGQGTLVTVSS
VL: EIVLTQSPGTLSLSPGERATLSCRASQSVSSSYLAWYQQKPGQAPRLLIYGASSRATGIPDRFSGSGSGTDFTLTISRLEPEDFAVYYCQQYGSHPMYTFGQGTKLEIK
notes: IgG
B3: MYT7989 (antibody, V domains shown)
VH: EVQLVQSGGGLVHPGGSLRLSCAGSGFTFSTYLMYWVRQAPGKTLEWVSAIGSGGDTYYADSVKGRFTISRDNAKNSLYLQMNSLRAEDMAVYYCARGHGYWGQGTLVTVSS
VL: not shown
notes: IgG
B4: MYT11409 (antibody, V domains shown)
VH: EVQLVESGGGLVQPGGSLRLSCTASGIDLSNYAVIWVRQAPGKGLEWVGIIYTYDTTYYANWAKGRFTISRDTSKNTVYLQMNSLRAEDTAVYFCARSFSDISDLIKLWGQGTLVTVSS
VL: EIVMTQSPSTLSASVGDRVIITCQASQSLYNNKDLAWYQQKPGKAPKLLIYEASKLASGVPSRFSGSGSGAEFTLTISSLQPDDFATYYCLGEFSCGHGDCLAFGQGTKLTVL
notes: MYT9797 LC variant; captured via anti-human Fc
B5: MYT11417 (antibody, V domains shown)
VH: EVQLVESGGGLVQPGGSLRLSCTASGIDLSNYAVIWVRQAPGKGLEWVGIIYTYDTTYYANWAKGRFTISRDTSKNTVYLQMNSLRAEDTAVYFCARSFSDISDLIKLWGQGTLVTVSS
VL: EIVMTQSPSTLSASVGDRVIITCQASQSLYNNKALAWYQQKPGKAPKLLIYEASKLASGVPSRFSGSGSGAEFTLTISSLQPDDFATYYCLGEFSCGSGDCLAFGQGTKLTVL
notes: MYT9797 LC alanine variant; captured via anti-human Fc
B6: MYT11410 (antibody, V domains shown)
VH: EVQLVESGGGLVQPGGSLRLSCTASGIDLSNYAVIWVRQAPGKGLEWVGIIYTYDTTYYANWAKGRFTISRDTSKNTVYLQMNSLRAEDTAVYFCARSFSDISDLIKLWGQGTLVTVSS
VL: EIVMTQSPSTLSASVGDRVIITCQASQSLYNNKDLAWYQQKPGKAPKLLIYEASKLASGVPSRFSGSGSGAEFTLTISSLQPDDFATYYCLGEFSCGSHDCLAFGQGTKLTVL
notes: as for B4
B7: MYT11258 (antibody, V domains shown)
VH: EVQLVESGGGLVQPGGSLRLSCTASGIDLHRYSMGWVRQAPGKGLEWVGIISYGGSTYYASWAKGRFTISRDTSKNTVYLQMNSLRAEDTAVYFCARVGYPGYSGYGYAFDAFDPWGQGTLVTVSS
VL: EIVMTQSPSTLSASVGDRVIITCQSSKSVYNDNWLSWYQQKPGKAPKLLIYGASTLASGVPSRFSGSGSGAEFTLTISSLQPDDFATYYCAGGYSSSSDNGFGQGTKLTVL
notes: MYT9792 variant, His at VH 30 (H1 05)
B8: MYT11272 (antibody, V domains shown)
VH: EVQLVESGGGLVQPGGSLRLSCTASGIDLSRYSMGWVRQAPGKGLEWVGIISYGGSTHYASWAKGRFTISRDTSKNTVYLQMNSLRAEDTAVYFCARVGYPGYSGYGYAFDAFDPWGQGTLVTVSS
VL: EIVMTQSPSTLSASVGDRVIITCQSSKSVYNDNWLSWYQQKPGKAPKLLIYGASTLASGVPSRFSGSGSGAEFTLTISSLQPDDFATYYCAGGYSSSSDNGFGQGTKLTVL
notes: MYT9792 variant, His at VH 58 (H2 09)
B9: MYT11279 (antibody, V domains shown)
VH: EVQLVESGGGLVQPGGSLRLSCTASGIDLSRYSMGWVRQAPGKGLEWVGIISYGGSTYYASWAKHRFTISRDTSKNTVYLQMNSLRAEDTAVYFCARVGYPGYSGYGYAFDAFDPWGQGTLVTVSS
VL: EIVMTQSPSTLSASVGDRVIITCQSSKSVYNDNWLSWYQQKPGKAPKLLIYGASTLASGVPSRFSGSGSGAEFTLTISSLQPDDFATYYCAGGYSSSSDNGFGQGTKLTVL
notes: MYT9792 variant, His at VH 65 (H2 16)
B10: MYT11267 (antibody, V domains shown)
VH: EVQLVESGGGLVQPGGSLRLSCTASGIDLSRYSMGWVRQAPGKGLEWVGIISHGGSTYYASWAKGRFTISRDTSKNTVYLQMNSLRAEDTAVYFCARVGYPGYSGYGYAFDAFDPWGQGTLVTVSS
VL: EIVMTQSPSTLSASVGDRVIITCQSSKSVYNDNWLSWYQQKPGKAPKLLIYGASTLASGVPSRFSGSGSGAEFTLTISSLQPDDFATYYCAGGYSSSSDNGFGQGTKLTVL
notes: MYT9792 variant, His at VH 53 (H2 04)
B11: MYT11263 (antibody, V domains shown)
VH: EVQLVESGGGLVQPGGSLRLSCTASGIDLSRYSMHWVRQAPGKGLEWVGIISYGGSTYYASWAKGRFTISRDTSKNTVYLQMNSLRAEDTAVYFCARVGYPGYSGYGYAFDAFDPWGQGTLVTVSS
VL: EIVMTQSPSTLSASVGDRVIITCQSSKSVYNDNWLSWYQQKPGKAPKLLIYGASTLASGVPSRFSGSGSGAEFTLTISSLQPDDFATYYCAGGYSSSSDNGFGQGTKLTVL
notes: MYT9792 variant, His at VH 35 (H1 10)

Molecular target: T1, Recombinant human CCK4/PTK7 Protein …
Test: BLI, antibody on anti-human Fc sensor

Q: Does B1 bind?
A: Result: no binding (tested: 50 nM PTK7)

Q: Does B2 bind?
A: Result: no binding (tested: 50 nM PTK7)

Q: Does B3 bind?
A: Result: no binding (tested: 50 nM PTK7)

Molecular target: T2, Human PTK7 Protein, His Tag (Acro …)
Test: BLI, antibody on anti-human Fc sensor, 50 nM PTK7 at pH 7.4, dissociation at pH 7.4 or 5.4; 1 = pH dependent binding relative to parent

Q: Does B4 bind?
A: Result: binds

Q: Does B5 bind?
A: Result: binds

Q: Does B6 bind?
A: Result: binds

Molecular target: T3, Human PTK7 Protein, His Tag, Acro …
Test: BLI, anti-human Fc capture, 50 nM PTK7; 1 = pH dependent binding relative to parent

Q: Does B7 bind?
A: Result: binds

Q: Does B8 bind?
A: Result: binds

Q: Does B9 bind?
A: Result: binds

Q: Does B10 bind?
A: Result: binds

Q: Does B11 bind?
A: Result: binds
